In patent US20220031806A1 (Five Prime, published 2022):

Target: T1, mouse PD-L1 on mouse splenocytes (mouse, UniProt Q9EP73 19-290)
T1 construct: whole, on cells
Test: flow cytometry receptor occupancy on BALB/c and C57Bl/6 splenocytes, free PD-L1 by competing Ab clone
Experimental: FIGS. 1A and 1B: Mouse splenocytes were evaluated for mCD80-Fc engagement and receptor occupancy. (A) Splenic immune cell subsets were identified as CD11b+ DCs (B220-Thy1.2−CD49b−CD11c+CD11b+), CD11b− DCs (B220− Thy1.2−CD49b-CD11c+CD11b−), Macrophages (B220−Thy1.2−CD49b−CD11c−CD11b+), NK cells (B220− Thy1.2−CD49b+), and T cells (CD3+CD4+ or CD3+CD8+) by flow cytometry. Representative flow cytometry plots depict the gating strategy. (B) Increasing concentrations of mCD80-Fc were incubated with mouse splenocytes (BALB/c strain top row; C57Bl/6 strain bottom row), and mCD80-Fc engagement was measured both via biotin-labeled anti-mIgG followed by streptavidin Alexa488 (“bound drug”) and by detection of CD80 ligands with competing Ab clones (“free” PD-L1 or CD28) enumerated as Antibody Binding Capacity (ABC) values. CTLA-4 was not detected on any immune cell evaluated (data not shown). L.D., limit of detection of ABC. Graphs depict mean±SD of n=3 animals/strain measured in technical duplicates. […]
Mouse splenocytes were prepared from adult BALB/c and […] mice by methods known to those of ordinary skill in the art. […] Data from the samples was acquired on a BD LSRII or BD LSRFortessa and analyzed using FlowJo, Excel, and Graphpad Prism.

T1 sequence (Q9EP73 19-290): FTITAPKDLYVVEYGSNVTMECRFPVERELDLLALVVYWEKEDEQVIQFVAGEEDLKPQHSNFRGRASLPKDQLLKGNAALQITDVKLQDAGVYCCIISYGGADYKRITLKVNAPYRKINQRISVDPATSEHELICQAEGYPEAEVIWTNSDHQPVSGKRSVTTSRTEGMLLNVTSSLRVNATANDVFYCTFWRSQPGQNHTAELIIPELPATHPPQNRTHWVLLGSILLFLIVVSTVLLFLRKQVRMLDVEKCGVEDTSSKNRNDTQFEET

B1: mouse surrogate fusion protein comprising the extracellular domain (ECD) of murine CD80 linked to the Fc domain of mouse IgG2a wild type (mCD80-Fc) (Fc fusion)
chain: VDEQLSKSVKDKVLLPCRYNSPHEDESEDRIYWQKHDKVVLSVIAGKLKVWPEYKNRTLYDNTTYSLIILGLVLSDRGTYSCVVQKKERGTYEVKHLALVKLSIKADFSTPNITESGNPSADTKRITCFASGGFPKPRFSWLENGRELPGINTTISQDPESELYTISSQLDFNTTRNHTIKCLIKYGDAHVSEDFTWEKPPEDPPDSKNEPRGPTIKPCPPCKCPAPNLLGGPSVFIFPPKIKDVLMISLSPIVTCVVVDVSEDDPDVQISWFVNNVEVHTAQTQTHREDYNSTLRVVSALPIQHQDWMSGKEFKCKVNNKDLPAPIERTISKPKGSVRAPQVYVLPPPEEEMTKKQVTLTCMVTDFMPEDIYVEWTNNGKTELNYKNTEPVLDSDGSYFMYSKLRVEKKNWVERNSYSCSVVHEGLHNHHTTKSFSRTPGK
notes: also called Murine CD80 ECD Fusion Molecules; Mouse CD80 ECD mouse Fc IgG2a
B1: no binding (tested: 0-1000 µg/mL).
